According to FireProtDB (doi:10.1021/bi00072a011):
Where “and” joins values, the source holds several entries; their conditions need not be identical. Identical values can stand only once.

Details: Salmonella typhimurium (strain LT2 / SGSC1412 / ATCC 700720); pH 7.8; 25 °C; Urea; CD; Potassium phosphate 10 mM; transition: 3; whole UniProt chain shown

B1: Tryptophan synthase alpha chain wild type, P00929 (protein)
chain: MERYENLFAQLNDRREGAFVPFVTLGDPGIEQSLKIIDTLIDAGADALELGVPFSDPLADGPTIQNANLRAFAAGVTPAQCFEMLALIREKHPTIPIGLLMYANLVFNNGIDAFYARCEQVGVDSVLVADVPVEESAPFRQAALRHNIAPIFICPPNADDDLLRQVASYGRGYTYLLSRSGVTGAENRGALPLHHLIEKLKEYHAAPALQGFGISSPEQVSAAVRAGAAGAISGSAIVKIIEKNLASPKQMLAELRSFVSAMKAASRA
With B1 the denaturant m value was 2.7 kcal/mol/M and 1.6 kcal/mol/M, the “denaturant midpoint (higher = more stable)” value was 2.75 M and 3.63 M and the unfolding free energy was 7.4 kcal/mol and 5.8 kcal/mol.
